These results are taken from PMC2670278 (Nature, 2009).

As a reminder, the Kd is a measure of binding affinity in units of concentration. A lower Kd goes with a tighter complex.

The target of this assay is factor H CCPs 6 & 7 (human, UniProt P08603, 402^His). Kind of assay: SPR.

B1: factor H binding protein, construct comprising regions A, B and C but lacking the lipid anchor (natural protein)
chain: GGVAADIGAGLADALTAPLDHKDKGLQSLTLDQSVRKNEKLKLAAQGAEKTYGNGDSLNTGKLKNDKVSRFDFIRQIEVDGQLITLESGEFQVYKQSHSALTAFQTEQIQDSEHSGKMVAKRQFRIGDIAGEHTSFDKLPEGGRATYRGTAFGSDDAGGKLTYTIDFAAKQGNGKIEHLKSPELNVDLAAADIKPDGKRHAVISGSVLYNQAEKGSYSLGIFGGKAQEVAGSAEVKTVNGIRHIGLAAKQ
With B1, the Kd was ~5 nM.
